Target: T1, human tumour necrosis factor alpha (TNFα) (human, UniProt P01375 77-233)
T1 construct: also called human TNF; recombinant human TNFα
Experiment: affinity; method not named at the sentence (BiaCore with captured hTNF40 and human TNF in flow is described at paragraph 169)
Source text: Following the injection of ligand, buffer was passed over the surface so that the dissociation could be measured.

T1 sequence (P01375 77-233 limits assumed): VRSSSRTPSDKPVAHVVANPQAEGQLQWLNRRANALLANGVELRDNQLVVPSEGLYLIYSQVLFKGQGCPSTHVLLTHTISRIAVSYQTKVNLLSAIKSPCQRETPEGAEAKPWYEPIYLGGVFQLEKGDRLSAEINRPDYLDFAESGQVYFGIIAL

B1: mouse monoclonal antibody hTNF40 (antibody, IgG2a, V domains shown)
VH: QIQLVQSGPELKKPGETVKISCKASGYVFTDYGMNWVKQAPGKAFKWMGWINTYIGEPIYVDDFKGRFAFSLETSASTAFLQINNLKNEDTATYFCARGYRSYAMDYWGQGTSVTVSS
VL: DIVMTQSQKFMSTSVGDRVSVTCKASQNVGTNVAWYQQKPGQSPKALIYSASFLYSGVPYRFTGSGSGTDFTLTISTVQSEDLAEYFCQQYNIYPLTFGAGTKLELKR
notes: The light chain constant region is kappa and the heavy chain constant region is IgG2a (mouse); also called murine hTNF40; the donor antibody
B1 showed a Kd of roughly 0.085 nM.
